The values that follow come from paper PMC4034419, “DNA polymerase hybrids derived from the family-B enzymes of Pyrococcus furiosus and Thermococcus kodakarensis: improving performance in the polymerase chain reaction”.

What all share (assay): fluorescence anisotropy; 20 mM Tris-HCl pH 8.5, 10 mM KCl, 10 mM (NH4)2SO4 (ionic strength 40); 10 nM Hex primer-template; rest of buffer and temperature not in material
What all share (conditions): protein: recombinant; label: 5'-hexachlorofluorescein on primer (strand 1); 5' overhang 20 nt on template (strand 2)

Data set [1] has as its target T1, Tkod-Pol wild type (family-B DNA polymerase) (Thermococcus kodakarensis, UniProt D0VWU9 1-774).
T1 sequence: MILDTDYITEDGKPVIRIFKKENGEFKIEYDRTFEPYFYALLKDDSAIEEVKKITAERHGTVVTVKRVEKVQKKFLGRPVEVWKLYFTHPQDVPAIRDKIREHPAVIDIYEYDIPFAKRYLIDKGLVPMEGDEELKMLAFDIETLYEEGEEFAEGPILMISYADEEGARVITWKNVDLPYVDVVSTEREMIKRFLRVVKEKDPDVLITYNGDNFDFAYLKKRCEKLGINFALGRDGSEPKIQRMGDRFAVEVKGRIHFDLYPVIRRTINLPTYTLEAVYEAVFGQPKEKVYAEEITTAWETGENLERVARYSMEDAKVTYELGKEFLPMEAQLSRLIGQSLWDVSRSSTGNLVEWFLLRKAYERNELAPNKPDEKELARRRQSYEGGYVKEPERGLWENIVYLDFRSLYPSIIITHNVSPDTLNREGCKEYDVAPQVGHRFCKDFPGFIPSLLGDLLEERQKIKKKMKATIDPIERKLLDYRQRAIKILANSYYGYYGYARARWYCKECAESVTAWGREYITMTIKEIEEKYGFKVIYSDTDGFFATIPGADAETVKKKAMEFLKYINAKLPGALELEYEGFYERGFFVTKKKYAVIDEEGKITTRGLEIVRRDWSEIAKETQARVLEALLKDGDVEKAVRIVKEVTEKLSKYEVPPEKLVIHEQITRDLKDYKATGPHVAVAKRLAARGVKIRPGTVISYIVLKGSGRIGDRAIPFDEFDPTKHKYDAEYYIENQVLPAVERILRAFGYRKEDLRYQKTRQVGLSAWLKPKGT

The target of data set [2] is T2, Pfu-TkodTS L381R/K502R (Pyrococcus furiosus / Thermococcus …, UniProt P61875 1-590+D0VWU9:590-774, L381R;K502R;internal_change).
T2 sequence: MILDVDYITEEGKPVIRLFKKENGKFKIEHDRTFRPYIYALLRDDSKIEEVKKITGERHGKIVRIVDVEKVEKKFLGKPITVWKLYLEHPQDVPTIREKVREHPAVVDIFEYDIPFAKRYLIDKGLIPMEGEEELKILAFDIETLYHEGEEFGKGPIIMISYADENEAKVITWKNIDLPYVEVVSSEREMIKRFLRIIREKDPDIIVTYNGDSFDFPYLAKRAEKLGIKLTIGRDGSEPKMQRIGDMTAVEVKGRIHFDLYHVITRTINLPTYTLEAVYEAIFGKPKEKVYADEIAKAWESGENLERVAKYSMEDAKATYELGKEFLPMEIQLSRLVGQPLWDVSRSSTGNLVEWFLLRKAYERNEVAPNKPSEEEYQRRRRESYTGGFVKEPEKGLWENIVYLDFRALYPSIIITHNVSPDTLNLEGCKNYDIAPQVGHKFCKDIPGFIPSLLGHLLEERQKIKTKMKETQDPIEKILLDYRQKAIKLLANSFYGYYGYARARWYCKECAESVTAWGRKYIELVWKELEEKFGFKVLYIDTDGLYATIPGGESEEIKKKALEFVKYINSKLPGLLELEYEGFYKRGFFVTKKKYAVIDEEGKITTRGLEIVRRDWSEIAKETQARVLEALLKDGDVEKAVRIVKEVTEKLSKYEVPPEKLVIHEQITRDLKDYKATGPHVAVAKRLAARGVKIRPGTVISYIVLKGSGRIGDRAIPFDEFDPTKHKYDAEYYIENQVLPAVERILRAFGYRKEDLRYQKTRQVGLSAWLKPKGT

The target of data set [3] is T3, Pfu-Pol L381R/K502R (Pyrococcus furiosus, UniProt P61875 1-775, L381R;K502R).
T3 sequence: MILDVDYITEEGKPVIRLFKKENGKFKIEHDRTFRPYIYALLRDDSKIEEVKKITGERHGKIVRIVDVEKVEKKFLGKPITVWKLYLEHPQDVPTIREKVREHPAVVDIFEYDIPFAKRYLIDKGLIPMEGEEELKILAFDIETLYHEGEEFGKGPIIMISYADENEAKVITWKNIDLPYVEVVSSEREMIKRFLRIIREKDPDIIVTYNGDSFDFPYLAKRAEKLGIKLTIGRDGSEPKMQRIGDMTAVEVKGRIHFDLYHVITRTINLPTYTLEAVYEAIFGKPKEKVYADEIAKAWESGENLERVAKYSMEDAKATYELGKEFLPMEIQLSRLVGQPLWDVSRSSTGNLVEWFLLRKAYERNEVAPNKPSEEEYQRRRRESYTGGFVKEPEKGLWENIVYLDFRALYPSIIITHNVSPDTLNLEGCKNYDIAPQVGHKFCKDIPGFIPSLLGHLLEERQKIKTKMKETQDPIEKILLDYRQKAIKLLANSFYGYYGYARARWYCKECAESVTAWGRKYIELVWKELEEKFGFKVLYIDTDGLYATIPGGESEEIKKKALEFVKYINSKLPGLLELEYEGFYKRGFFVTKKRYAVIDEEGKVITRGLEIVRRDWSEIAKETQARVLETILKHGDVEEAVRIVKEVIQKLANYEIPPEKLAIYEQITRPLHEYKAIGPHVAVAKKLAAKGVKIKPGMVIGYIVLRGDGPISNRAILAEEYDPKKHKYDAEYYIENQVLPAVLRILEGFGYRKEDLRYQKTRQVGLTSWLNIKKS

Data set [4] concerns the target T4, Pfu-Pol wild type (family-B DNA polymerase) (Pyrococcus furiosus, UniProt P61875 1-775).
T4 sequence: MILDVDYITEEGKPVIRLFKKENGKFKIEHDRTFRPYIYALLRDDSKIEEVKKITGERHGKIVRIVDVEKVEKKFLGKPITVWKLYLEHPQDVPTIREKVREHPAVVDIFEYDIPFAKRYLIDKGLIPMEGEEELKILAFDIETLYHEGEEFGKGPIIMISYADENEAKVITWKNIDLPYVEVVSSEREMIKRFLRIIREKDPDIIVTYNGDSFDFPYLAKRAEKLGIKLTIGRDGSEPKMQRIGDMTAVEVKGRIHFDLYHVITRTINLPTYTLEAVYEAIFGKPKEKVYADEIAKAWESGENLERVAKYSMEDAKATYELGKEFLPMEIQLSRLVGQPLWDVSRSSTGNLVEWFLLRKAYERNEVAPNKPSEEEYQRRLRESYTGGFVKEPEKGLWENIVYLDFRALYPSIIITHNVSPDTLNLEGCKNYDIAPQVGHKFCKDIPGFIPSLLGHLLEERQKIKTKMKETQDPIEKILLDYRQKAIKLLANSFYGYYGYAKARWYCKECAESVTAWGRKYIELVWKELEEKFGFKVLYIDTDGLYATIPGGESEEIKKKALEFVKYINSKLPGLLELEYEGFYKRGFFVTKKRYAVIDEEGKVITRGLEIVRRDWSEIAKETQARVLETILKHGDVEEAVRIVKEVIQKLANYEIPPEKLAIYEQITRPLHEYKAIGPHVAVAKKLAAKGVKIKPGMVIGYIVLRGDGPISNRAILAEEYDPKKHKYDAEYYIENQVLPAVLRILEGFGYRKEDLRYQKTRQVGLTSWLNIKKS

Data set [5] addresses T5, Pfu-TkodTS (thumb swap) (Pyrococcus furiosus / Thermococcus …, UniProt P61875 1-590+D0VWU9:590-774, internal_change).
T5 sequence: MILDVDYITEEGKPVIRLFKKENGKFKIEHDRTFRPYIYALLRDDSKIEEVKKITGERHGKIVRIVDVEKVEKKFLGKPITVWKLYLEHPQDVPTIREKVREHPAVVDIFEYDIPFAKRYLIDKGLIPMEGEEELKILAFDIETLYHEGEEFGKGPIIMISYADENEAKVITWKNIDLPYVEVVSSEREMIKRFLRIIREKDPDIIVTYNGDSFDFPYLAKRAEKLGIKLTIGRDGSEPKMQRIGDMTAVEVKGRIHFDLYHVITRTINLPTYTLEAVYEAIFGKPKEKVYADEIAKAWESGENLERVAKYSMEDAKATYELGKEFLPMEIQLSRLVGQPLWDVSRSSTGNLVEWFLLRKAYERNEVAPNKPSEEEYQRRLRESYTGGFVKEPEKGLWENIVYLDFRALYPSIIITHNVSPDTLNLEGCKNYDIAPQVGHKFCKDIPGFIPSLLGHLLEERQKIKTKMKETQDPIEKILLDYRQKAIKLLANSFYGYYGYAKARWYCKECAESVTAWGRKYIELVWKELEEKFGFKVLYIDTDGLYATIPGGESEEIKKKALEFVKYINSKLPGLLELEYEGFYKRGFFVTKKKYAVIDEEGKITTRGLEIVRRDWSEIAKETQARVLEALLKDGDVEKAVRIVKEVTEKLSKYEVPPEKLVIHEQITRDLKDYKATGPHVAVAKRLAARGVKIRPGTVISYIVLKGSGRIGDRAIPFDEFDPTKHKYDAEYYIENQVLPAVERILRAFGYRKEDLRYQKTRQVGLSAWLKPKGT

The target of data set [6] is T6, Pfu-Pol M247R/L381R (Pyrococcus furiosus, UniProt P61875 1-775, M247R;L381R).
T6 sequence: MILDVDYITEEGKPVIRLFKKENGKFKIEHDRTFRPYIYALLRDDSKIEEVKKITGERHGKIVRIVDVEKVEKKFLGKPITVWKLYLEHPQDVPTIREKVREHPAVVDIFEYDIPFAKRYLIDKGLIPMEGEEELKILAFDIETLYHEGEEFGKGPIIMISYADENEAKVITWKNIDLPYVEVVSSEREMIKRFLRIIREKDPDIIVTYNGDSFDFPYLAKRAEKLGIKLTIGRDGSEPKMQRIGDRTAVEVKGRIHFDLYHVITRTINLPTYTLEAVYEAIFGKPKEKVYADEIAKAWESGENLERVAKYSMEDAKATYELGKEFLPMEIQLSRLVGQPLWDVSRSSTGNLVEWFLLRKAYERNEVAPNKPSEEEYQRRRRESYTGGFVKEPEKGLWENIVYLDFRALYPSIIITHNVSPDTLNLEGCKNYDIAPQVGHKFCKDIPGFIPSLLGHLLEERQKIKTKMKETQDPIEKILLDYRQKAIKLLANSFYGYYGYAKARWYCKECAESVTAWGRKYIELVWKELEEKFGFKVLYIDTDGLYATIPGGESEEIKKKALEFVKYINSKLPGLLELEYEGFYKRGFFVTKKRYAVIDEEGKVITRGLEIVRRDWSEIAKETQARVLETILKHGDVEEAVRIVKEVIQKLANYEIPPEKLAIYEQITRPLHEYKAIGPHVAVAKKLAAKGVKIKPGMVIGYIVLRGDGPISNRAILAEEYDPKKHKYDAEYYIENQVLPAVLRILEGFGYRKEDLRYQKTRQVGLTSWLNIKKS

As a reminder, the Kd is the concentration at which binding is half-saturated.

B1: Hex primer-template (24/44) (dsDNA)
DNA 1: GGGGATCCTCTAGAGTCGACCTGC
DNA 2: GGAGACAAGCTTGCTTGCCAGCAGGTCGACTCTAGAGGATCCCC
Regarding B1, the Kd was 276 ± 18 nM in data set [1]; 50 ± 7 nM in data set [2]; 107 ± 13 nM in data set [3]; 251 ± 23 nM in data set [4]; 95 ± 7 nM in data set [5]; 70 ± 9 nM in data set [6].
